# Measurements published in patent publication US20240192215A1 (E AND S HEALTHCARE, published 2024).
# B1: monoclonal antibody B266-1 (antibody, human IgG1)
# light: QIVLTQSPAIMSASPGEKVTMTCSASSRISYMYWYQQKPGTSPKRWIYDTSKLASGVPARFSGSGSGTSYSLTISTMEAEDAATYYCHQRSSYPTFGAGTKLELKSVAAPSVFIFPPSDEQLKSGTASVVCLLNNFYPREAKVQWKVDNALQSGNSQESVTEQDSKDSTYSLSSTLTLSKADYEKHKVYACEVTHQGLSSPVTKSFNRGEC
# heavy: not shown
# notes: B266 with the Fc part changed to human IgG1; also called B266-1 (Trx1-hIgG1); B266-1 (hTrx1-hIgG1)
# B2: monoclonal antibody B264 (antibody, mouse IgG1, kappa, V domains shown)
# VH: QVQLQQSGAELARPGASVKMSCKASGYTFTSYTMHWVKQRPGQGLEWIGYINPTSDYTNYNQKFKDKATLTADKSSSTAYMQLSSLTSEDSAVYFCASEGGFLYYFDYWGQGTTLTVSS
# VL: DVLMTQTPLSLPVSLGDQASISCRSSQSIVHSNGNTYLEWYLQKPGQSPKLLIYKVSNRFSGVPDRFSGSGSGTDFTLKISRVEAEDLGVYYCFQGSHVPYTFGGGTKLEIKR
# notes: also called AB264; B264 (Trx1-mIgG1)
# Experiments:
# Peptide_055 [1] = target: T1, Peptide_055 (human); experiment: peptide microarray, 5 ug/mL
# T1 construct: 15-mer of hTrx1 on microarray
# T1 peptide: IKPFFHSLSEKYSNV
# Method: (§1) 5, 1, 0.2, 0.04, 0.008 and 0.0016 μg/mL serial dilutions were incubated on a single multi-well microarray slide at 30° C. for 1 hour. The slide includes 21 individual mini-arrays (one mini-array per sample dilution).
# (§2) DyLight 650 was used as a label. False-positive binding to a peptide was evaluated by performing one additional control incubation in which only a secondary antibody was applied on the same microarray slide. Before performing each step, the microarrays were washed with a washing buffer.
# Peptide_047 [2] = target: T2, Peptide_047 (human); experiment: peptide microarray, 5 ug/mL
# T2 construct: 15-mer of hTrx1 on microarray
# T2 peptide: TWCGPCKMIKPFFHS
# Method: as §1, §2
# Peptide_046 [3] = target: T3, Peptide_046 (human); experiment: peptide microarray, 5 ug/mL
# T3 construct: 15-mer of hTrx1 on microarray
# T3 peptide: ATWCGPCKMIKPFFH
# Method: as §1, §2
# Peptide_049 [4] = target: T4, Peptide_049 (human); experiment: peptide microarray, 5 ug/mL
# T4 construct: 15-mer of hTrx1 on microarray
# T4 peptide: CGPCKMIKPFFHSLS
# Method: as §1, §2
# [5] = target: T5, human thioredoxin-1 (Trx1) (human, UniProt P10599 1-105); experiment: ELISA on 100 ng coated Trx1, antibody titration, Prism fit
# T5 construct: also called hTrx1; hTRX1
# T5 sequence (looked up): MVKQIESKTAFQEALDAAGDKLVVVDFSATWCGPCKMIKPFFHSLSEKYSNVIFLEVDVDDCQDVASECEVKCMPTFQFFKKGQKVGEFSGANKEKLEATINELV
# Method: 100 μl of a coating buffer and 100 ng of Trx1 were mixed and dispensed to each well, and then reacted at 4° C. for 16 hours or more. After the reaction solution was removed, 200 μl of PBSA was dispensed to each well and reacted at 37° C. for 120 minutes. […] After the reaction solution was removed, washing was performed by dispensing 200 μl of a washing buffer to each well. The above-described process was performed two times.
# After the reaction solution was removed, washing was performed by dispensing 200 μl of a washing buffer to each well. The above-described process was performed three times.
# Peptide_048 [6] = target: T6, Peptide_048 (human); experiment: peptide microarray, head 0.08 ug (text 0.008 ug/mL)
# T6 construct: 15-mer of hTrx1 on microarray
# T6 peptide: WCGPCKMIKPFFHSL
# Method: as §1, §2
# Peptide_057 [7] = target: T7, Peptide_057 (human); experiment: as above
# T7 construct: 15-mer of hTrx1 on microarray
# T7 peptide: PFFHSLSEKYSNVIF
# Method: as §1, §2
# Peptide_052 [8] = target: T8, Peptide_052 (human); experiment: as above
# T8 construct: 15-mer of hTrx1 on microarray
# T8 peptide: CKMIKPFFHSLSEKY
# Method: as §1, §2
# Peptide_055 [9] = target: T1, Peptide_055; experiment: as above
# Method: as §1, §2
# Peptide_050 [10] = target: T9, Peptide_050 (human); experiment: as above
# T9 construct: 15-mer of hTrx1 on microarray
# T9 peptide: GPCKMIKPFFHSLSE
# Method: as §1, §2
# Peptide_056 [11] = target: T10, Peptide_056 (human); experiment: as above
# T10 construct: 15-mer of hTrx1 on microarray
# T10 peptide: KPFFHSLSEKYSNVI
# Method: as §1, §2
# Peptide_047 [12] = target: T2, Peptide_047; experiment: as above
# Method: as §1, §2
# Peptide_054 [13] = target: T11, Peptide_054 (human); experiment: as above
# T11 construct: 15-mer of hTrx1 on microarray
# T11 peptide: MIKPFFHSLSEKYSN
# Method: as §1, §2
# Peptide_046 [14] = target: T3, Peptide_046; experiment: as above
# Method: as §1, §2
# Peptide_049 [15] = target: T4, Peptide_049; experiment: as above
# Method: as §1, §2
# Peptide_053 [16] = target: T12, Peptide_053 (human); experiment: as above
# T12 construct: 15-mer of hTrx1 on microarray
# T12 peptide: KMIKPFFHSLSEKYS
# Method: as §1, §2
# Peptide_048 [17] = target: T6, Peptide_048; experiment: peptide microarray, 0.0016 ug/mL
# Method: as §1, §2
# Peptide_057 [18] = target: T7, Peptide_057; experiment: peptide microarray, 0.0016 ug/mL
# Method: as §1, §2
# Peptide_052 [19] = target: T8, Peptide_052; experiment: peptide microarray, 0.0016 ug/mL
# Method: as §1, §2
# Peptide_055 [20] = target: T1, Peptide_055; experiment: peptide microarray, 0.0016 ug/mL
# Method: as §1, §2
# Peptide_050 [21] = target: T9, Peptide_050; experiment: peptide microarray, 0.0016 ug/mL
# Method: as §1, §2
# Peptide_056 [22] = target: T10, Peptide_056; experiment: peptide microarray, 0.0016 ug/mL
# Method: as §1, §2
# Peptide_047 [23] = target: T2, Peptide_047; experiment: peptide microarray, 0.0016 ug/mL
# Method: as §1, §2
# Peptide_054 [24] = target: T11, Peptide_054; experiment: peptide microarray, 0.0016 ug/mL
# Method: as §1, §2
# Peptide_046 [25] = target: T3, Peptide_046; experiment: peptide microarray, 0.0016 ug/mL
# Method: as §1, §2
# Peptide_049 [26] = target: T4, Peptide_049; experiment: peptide microarray, 0.0016 ug/mL
# Method: as §1, §2
# Peptide_053 [27] = target: T12, Peptide_053; experiment: peptide microarray, 0.0016 ug/mL
# Method: as §1, §2
# Peptide_023 = target: T13, Peptide_023 (human); experiment: peptide microarray, 1 ug/mL
# T13 construct: 15-mer of hTrx1 on microarray
# T13 peptide: ESKTAFQEALDAAGD
# Method: as §1, §2
# Peptide_086 = target: T14, Peptide_086 (human); experiment: peptide microarray, 1 ug/mL
# T14 construct: 15-mer of hTrx1 on microarray
# T14 peptide: CEVKCMPTFQFFKKG
# Method: as §1, §2
# Peptide_024 = target: T15, Peptide_024 (human); experiment: peptide microarray, 1 ug/mL
# T15 construct: 15-mer of hTrx1 on microarray
# T15 peptide: SKTAFQEALDAAGDK
# Method: as §1, §2
# Peptide_021 = target: T16, Peptide_021 (human); experiment: peptide microarray, 1 ug/mL
# T16 construct: 15-mer of hTrx1 on microarray
# T16 peptide: QIESKTAFQEALDAA
# Method: as §1, §2
# Peptide_014 = target: T17, Peptide_014 (human); experiment: peptide microarray, 1 ug/mL
# T17 construct: 15-mer on microarray; not native form, includes recombinant insert region
# T17 peptide: HHHHHVKQIESKTAF
# Method: as §1, §2
# Peptide_095 = target: T18, Peptide_095 (human); experiment: peptide microarray, 1 ug/mL
# T18 construct: 15-mer of hTrx1 on microarray
# T18 peptide: QFFKKGQKVGEFSGA
# Method: as §1, §2
# Peptide_045 = target: T19, Peptide_045 (human); experiment: peptide microarray, 1 ug/mL
# T19 construct: 15-mer of hTrx1 on microarray
# T19 peptide: SATWCGPCKMIKPFF
# Method: as §1, §2
Binder,signal (blank-control = 1) (Peptide_055 [1]),signal (blank-control = 1) (Peptide_047 [2]),signal (blank-control = 1) (Peptide_046 [3]),signal (blank-control = 1) (Peptide_049 [4]),Kd [5] [nM],signal (blank-control = 1) (Peptide_048 [6]),signal (blank-control = 1) (Peptide_057 [7]),signal (blank-control = 1) (Peptide_052 [8]),signal (blank-control = 1) (Peptide_055 [9]),signal (blank-control = 1) (Peptide_050 [10]),signal (blank-control = 1) (Peptide_056 [11]),signal (blank-control = 1) (Peptide_047 [12]),signal (blank-control = 1) (Peptide_054 [13]),signal (blank-control = 1) (Peptide_046 [14]),signal (blank-control = 1) (Peptide_049 [15]),signal (blank-control = 1) (Peptide_053 [16]),signal (blank-control = 1) (Peptide_048 [17]),signal (blank-control = 1) (Peptide_057 [18]),signal (blank-control = 1) (Peptide_052 [19]),signal (blank-control = 1) (Peptide_055 [20]),other results
B1,2.08,5.58,6.41,2.89,0.011,7.25,2.09,1.12,0.85,0.52,1.07,1.11,0.71,1.64,1.31,1.44,7.61,1.93,1.37,1.05,signal (blank-control = 1) (Peptide_050 [21]): 0.62; signal (blank-control = 1) (Peptide_056 [22]): 1.18; signal (blank-control = 1) (Peptide_047 [23]): 1.18; signal (blank-control = 1) (Peptide_054 [24]): 0.73; signal (blank-control = 1) (Peptide_046 [25]): 1.79; signal (blank-control = 1) (Peptide_049 [26]): 1.37; signal (blank-control = 1) (Peptide_053 [27]): 1.42
B2,3.57,4.89,6.2,1.11,0.13,7.68,2.27,1.23,0.99,0.65,1.11,1.52,0.63,2.11,1.43,1.76,7.46,1.73,1.15,0.81,signal (blank-control = 1) (Peptide_050 [21]): 0.51; signal (blank-control = 1) (Peptide_056 [22]): 0.99; signal (blank-control = 1) (Peptide_047 [23]): 1.15; signal (blank-control = 1) (Peptide_054 [24]): 0.55; signal (blank-control = 1) (Peptide_046 [25]): 1.69; signal (blank-control = 1) (Peptide_049 [26]): 1.18; signal (blank-control = 1) (Peptide_053 [27]): 1.41; signal (blank-control = 1) (Peptide_023): 1.19; signal (blank-control = 1) (Peptide_086): 1.56; signal (blank-control = 1) (Peptide_024): 6.5; signal (blank-control = 1) (Peptide_021): 2.48; signal (blank-control = 1) (Peptide_014): 6.71; signal (blank-control = 1) (Peptide_095): 3.52; signal (blank-control = 1) (Peptide_045): 5.11
